Test results as given in IntAct's records for PubMed 24705590.

B1: Microcin J25 (Escherichia coli), Q9X2V7 (parent)
chain: MIKHFHFNKLSSGKKNNVPSPAKGVIQIKKSASQLTKGGAGHVPEYFVGIGTPISFYG

Variants of: B1
Conditions: with fhua_ecoli fhuA

Variant	effect of a mutation on the interaction
H42K	decreasing interaction strength
